The target of assay [1] is TSHR (full length) coated on tubes (human) (UniProt P16473). As to the kind of experiment: inhibition of 125I-K1-18 Fab (competitor) binding to TSHR coated tubes; negative control 1 µg/mL in HBD serum.
Assay [2] deals with human TSH receptor (full length) coated on ELISA plate wells (human) (UniProt P16473). As to the kind of experiment: TSH-biotin binding inhibition ELISA, TSHR coated wells; 100 µg/mL in assay buffer; negative control MAb.
Assay [3] deals with TSH receptor (TSHR) coated on tubes (human) (UniProt P16473). Put plainly: inhibition of 125I-K1-70 IgG binding to TSHR coated tubes; negative control 1 µg/mL in HBD serum pool; duplicate determination.
The target is the same in assay [4]. As to the kind of experiment: inhibition of 125I-K1-70 IgG binding to TSHR coated tubes; negative control 0.001 µg/mL in assay buffer.
Assay [5] addresses thyroid stimulating hormone receptor (TSHR), full length human TSHR (human) (UniProt P16473). Put plainly: TSH-biotin competition ELISA, TSHR coated wells; 1 µg/mL in HBD serum. (In an ELISA, binding on a coated surface is turned into a signal by an enzyme label.)
Assay [6] addresses TSHR (full length) coated on tubes (human) (UniProt P16473). As to the kind of experiment: inhibition of 125I-K1-18 Fab (competitor) binding to TSHR coated tubes; test sample 100 µg/mL in HBD serum.
Assay [7] concerns the target TSH receptor (full length human TSHR) (human) (UniProt P16473). As to the kind of experiment: competition ELISA: inhibition of M22 Fab-peroxidase (competitor) binding to TSHR coated wells; test sample at 0.1 µg/mL diluted in HBD serum pool.
Assay [8] deals with TSHR (full length) coated on tubes (human) (UniProt P16473). As to the kind of experiment: inhibition of 125I-K1-18 Fab (competitor) binding to TSHR coated tubes; test sample 0.01 µg/mL in HBD serum.
In assay [9] the target is thyroid stimulating hormone receptor (full length human TSHR) (human) (UniProt P16473). As to the kind of experiment: ELISA, inhibition of TSH-biotin binding to TSHR coated wells; 10 µg/mL, diluted in HBD serum pool.
Assay [10] concerns the target TSH receptor (TSHR) coated on tubes (human) (UniProt P16473). As to the kind of experiment: inhibition of 125I-K1-70 IgG binding to TSHR coated tubes; sample 10 µg/mL in HBD serum pool.

As to 5B3 IgG (antibody), the figures for the Inhibition of binding (%) in [1], in assay [3] and in assay [4] were -3.1%, 0% and -1.5%, respectively. The % inhibition of TSH-biotin binding in assay [2] was 8.3%.

For 9D33 IgG (antibody), the Inhibition of binding (%) in [5] amounted to 76%; in assay [6] it was 77.3%; in assay [7], 24.1%; in assay [8], 2.3%.

B1: 5C9 IgG (antibody, from another filing, V domains shown)
VH: EVQLVESGGGLIQPGGSLRLSCAASGFTVSSNYMSWVRQAPGKGLEWVSVTYSGGSTSYADSVKGRFTISRDNSKNTLYLQMNSLRAEDTAVYYCARGGRYCSSISCYARSGCDYWGQGTLVTVSS
VL: AIQMTQSPSSLSASVGDRVTITCRASQSISNYLNWYQQKPGKAPKLLIYAASSLQSGVPSRFSGSGSGTDFTLTISSLQPEDFATYYCQQSYSSPSTTFGQGTKLEIK
B1: the Inhibition of binding (%) in assay [9] worked out at 37.4%; in assay [10], 22.7%.

The record behind these values is patent publication US20110300138A1 (published 2011).
